Source: patent publication US20110281365A1 (Stanford University, published 2011)

Key:
[1] = target: T1, human FcεRIα protein (alpha chain of the high affinity IgE receptor) (human, UniProt P12319 26-201); experiment: fluorescence quenching receptor binding titration, 96-well plate
T1 construct: Purified soluble protein used in solution; The embodiments and claims speak of the extracellular region 1-176
T1 sequence (looked up): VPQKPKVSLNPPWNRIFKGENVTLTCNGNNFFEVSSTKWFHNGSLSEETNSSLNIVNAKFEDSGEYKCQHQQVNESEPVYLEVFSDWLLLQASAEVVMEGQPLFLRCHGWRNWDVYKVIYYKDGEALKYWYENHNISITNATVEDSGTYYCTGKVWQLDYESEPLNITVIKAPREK
Protocol: Binding buffer conditions were optimized to improve reproducibility of the binding assay in a 96-well plate format.
(§1) Fluorescence Measurement. Samples were monitored by fluorescence using a Synergy 4 Fluorometer (BioTek) in black 96-well Costar fluorescence plates (Corning). […] The read-type for typical measurements was Endpoint. All measurements were recorded in duplicate.

[2] = target: T1, human FcεRIα protein (alpha chain of …); experiment: fluorescence quenching competition assay; competitor of 488-labeled 367C IgE-Fc for FcεRIα
Protocol: Initial experiments were conducted with unlabeled IgE-Fc as the competitor.
as §1

B1: Alexa Fluor 488-labeled 367C IgE-Fc (human IgE-Fc Cε3-Cε4 C328A/K367C double mutant) (other)
chain: ADPAADSNPRGVSAYLSRPSPFDLFIRKSPTITCLVVDLAPSCGTVNLTWSRASGKPVNHSTRKEEKQRNGTLTVTSTLPVGTRDWIEGETYQCRVTHPHLPRALMRSTTKTSGPRAAPEVYAFATPEWPGSRDKRTLACLIQNFMPEDISVQWLHNEVQLPDARHSTTQPRKTKGSGFFVFSRLEVTRAEWEQKDEFICRAVHEAASPSQTVQRAVSVNPGKAADDDDKRYLDPAFLYKVRMNEDLGKPIPNPLLGLDSTRTGHHHHHH
modifications: Alexa Fluor 488 maleimide dye on Cys 367 (Dorrington and Bennich numbering)
notes: Expressed in insect cells; also called labeled IgE-Fc
**Q.** How did the Kd [1] turn out when B1 was run?
**A.** ~22 nM

B2: unlabeled wild type IgE-Fc (human IgE-Fc Cε3-Cε4) (other)
chain: ADPCADSNPRGVSAYLSRPSPFDLFIRKSPTITCLVVDLAPSKGTVNLTWSRASGKPVNHSTRKEEKQRNGTLTVTSTLPVGTRDWIEGETYQCRVTHPHLPRALMRSTTKTSGPRAAPEVYAFATPEWPGSRDKRTLACLIQNFMPEDISVQWLHNEVQLPDARHSTTQPRKTKGSGFFVFSRLEVTRAEWEQKDEFICRAVHEAASPSQTVQRAVSVNPGK
notes: also called unlabeled IgE-Fc; unlabeled IgE
**Q.** How did the EC50 [2] turn out when B2 was run?
**A.** ~75 nM
